Laboratory results taken from paper PMC3419727, “Identifying the Hotspots on the Top Faces of WD40-Repeat Proteins from Their Primary Sequences by β-Bulges and DHSW Tetrads” (PLoS ONE, 2012).

Tests used:
Assay in all cases: ITC; Fep1 (~1.4 mM) injected, 2 µl each time, into Tup11 WT or mutant (~0.2 mM); 25°C; 1×PBS pH 7.4, 150 mM NaCl; iTC200 (MicroCal); Fep1 into buffer subtracted as background
Details in all cases: both partners purified
[1] = target: T1, S. japonicus Tup11 WD40 domain (amino acids 301–630), wild type (S. japonicus, UniProt B6JV84 301-630)
T1 construct: Tup11, S. japonicus, WD40 domain, amino acids 301-630; also called Tup11 WT
T1 sequence (looked up): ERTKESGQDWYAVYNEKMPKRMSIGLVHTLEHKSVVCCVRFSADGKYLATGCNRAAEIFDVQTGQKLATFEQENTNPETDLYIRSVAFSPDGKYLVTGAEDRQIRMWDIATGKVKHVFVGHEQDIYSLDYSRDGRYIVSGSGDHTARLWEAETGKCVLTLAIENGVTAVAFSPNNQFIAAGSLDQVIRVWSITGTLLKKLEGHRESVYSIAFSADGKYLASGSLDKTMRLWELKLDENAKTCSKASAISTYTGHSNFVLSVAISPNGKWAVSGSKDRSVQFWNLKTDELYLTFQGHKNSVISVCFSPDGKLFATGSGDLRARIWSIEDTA

[2] = target: T2, S. japonicus Tup11 WD40 domain (301–630) Cys337Ala (S. japonicus, UniProt B6JV84 301-630, Cys337 substituted by Ala)
T2 construct: Tup11, S. japonicus, WD40 domain, amino acids 301-630; also called Cyc337
T2 sequence (looked up): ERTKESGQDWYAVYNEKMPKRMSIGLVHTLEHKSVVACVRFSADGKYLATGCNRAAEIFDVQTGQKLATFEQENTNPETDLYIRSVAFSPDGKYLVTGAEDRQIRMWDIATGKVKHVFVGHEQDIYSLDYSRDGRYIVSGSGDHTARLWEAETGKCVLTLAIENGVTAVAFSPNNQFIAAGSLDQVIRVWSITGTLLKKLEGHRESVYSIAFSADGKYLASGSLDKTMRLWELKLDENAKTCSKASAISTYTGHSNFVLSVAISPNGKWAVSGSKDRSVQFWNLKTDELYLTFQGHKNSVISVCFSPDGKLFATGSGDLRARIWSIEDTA

[3] = target: T3, S. japonicus Tup11 WD40 domain (301–630) Thr467Ala (S. japonicus, UniProt B6JV84 301-630, Thr467 substituted by Ala)
T3 construct: Tup11, S. japonicus, WD40 domain, amino acids 301-630
T3 sequence (looked up): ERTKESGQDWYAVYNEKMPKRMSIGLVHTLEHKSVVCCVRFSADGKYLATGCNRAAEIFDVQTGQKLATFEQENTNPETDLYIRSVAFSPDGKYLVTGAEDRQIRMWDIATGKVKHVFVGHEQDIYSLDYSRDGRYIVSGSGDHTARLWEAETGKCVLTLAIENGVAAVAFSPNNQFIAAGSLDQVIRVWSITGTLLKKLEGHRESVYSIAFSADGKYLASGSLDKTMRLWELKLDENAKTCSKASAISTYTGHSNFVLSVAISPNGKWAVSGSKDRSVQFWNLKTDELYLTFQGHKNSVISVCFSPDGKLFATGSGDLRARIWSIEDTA

[4] = target: T4, S. japonicus Tup11 WD40 domain (301–630) Tyr426Ala (S. japonicus, UniProt B6JV84 301-630, Tyr426 substituted by Ala)
T4 construct: Tup11, S. japonicus, WD40 domain, amino acids 301-630
T4 sequence (looked up): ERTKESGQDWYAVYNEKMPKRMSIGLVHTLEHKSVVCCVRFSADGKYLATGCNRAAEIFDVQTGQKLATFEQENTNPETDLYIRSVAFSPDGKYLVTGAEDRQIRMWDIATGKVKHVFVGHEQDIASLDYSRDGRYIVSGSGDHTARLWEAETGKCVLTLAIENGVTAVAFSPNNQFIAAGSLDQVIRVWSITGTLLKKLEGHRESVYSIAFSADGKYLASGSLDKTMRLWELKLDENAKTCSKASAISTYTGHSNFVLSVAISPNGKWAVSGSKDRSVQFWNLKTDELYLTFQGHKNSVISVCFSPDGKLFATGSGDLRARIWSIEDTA

[5] = target: T5, S. japonicus Tup11 WD40 domain (301–630) Leu559Ala (S. japonicus, UniProt B6JV84 301-630, Leu559Ala)
T5 construct: Tup11, S. japonicus, WD40 domain, amino acids 301-630
T5 sequence (looked up): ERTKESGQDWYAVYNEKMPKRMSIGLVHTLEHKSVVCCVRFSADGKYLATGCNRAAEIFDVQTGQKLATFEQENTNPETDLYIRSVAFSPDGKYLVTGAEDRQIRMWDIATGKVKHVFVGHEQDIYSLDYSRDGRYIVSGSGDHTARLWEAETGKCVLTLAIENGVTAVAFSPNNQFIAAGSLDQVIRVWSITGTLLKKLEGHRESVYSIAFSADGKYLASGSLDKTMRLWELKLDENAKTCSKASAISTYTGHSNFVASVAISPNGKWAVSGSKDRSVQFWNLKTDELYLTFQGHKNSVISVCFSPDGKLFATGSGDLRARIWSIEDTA

B1: C-terminal region of S. pombe Fep1 (amino acids 319–564) (domain or fragment, UniProt Q10134 319-564, looked up)
chain: AAGEPDNNGKVYYSYGPTQEQSILPLPENKHEGLPPYQNEYVPNGIRANQVVYPGQLVAVGNDSSKQLSESTTSNTDNNGVATANQSNPLGMKFHLPPILPVGESVCLPPRTSAKPRIAEGIASLLNPEEPPSNSDKQPSMSNGPKSEVSPSQSQQAPLIQSSTSPVSLQFPPEVQGSNVDKRNYALNVLSQLRSQHDLMIQELHNLNQHIQQIDEWLRSSDNENMASEHIKSSTPAVVASGALQT
notes: Fep1, GATA-factor, S. pombe, C-terminal region, amino acids 319-564
[1]
  Kd: ~10 µM
[2]
  binding result: binds
[3]
  binding result: binds
[4]
  binding result: binds
[5]
  reduction of binding free energy against wild type: ~1 kcal/mol
